Results from patent US20210122818A1 (BIOUNIVERSA S R L, published 2021).

Target: T1, recombinant BAG3 full-length protein (UniProt O95817 2-575, limits assumed)
T1 construct: mature; also called rBAG3; E. Coli rBAG3
Assay: method for the murine antibody not stated (Example 3, Octet)

T1 sequence (O95817 2-575 limits assumed): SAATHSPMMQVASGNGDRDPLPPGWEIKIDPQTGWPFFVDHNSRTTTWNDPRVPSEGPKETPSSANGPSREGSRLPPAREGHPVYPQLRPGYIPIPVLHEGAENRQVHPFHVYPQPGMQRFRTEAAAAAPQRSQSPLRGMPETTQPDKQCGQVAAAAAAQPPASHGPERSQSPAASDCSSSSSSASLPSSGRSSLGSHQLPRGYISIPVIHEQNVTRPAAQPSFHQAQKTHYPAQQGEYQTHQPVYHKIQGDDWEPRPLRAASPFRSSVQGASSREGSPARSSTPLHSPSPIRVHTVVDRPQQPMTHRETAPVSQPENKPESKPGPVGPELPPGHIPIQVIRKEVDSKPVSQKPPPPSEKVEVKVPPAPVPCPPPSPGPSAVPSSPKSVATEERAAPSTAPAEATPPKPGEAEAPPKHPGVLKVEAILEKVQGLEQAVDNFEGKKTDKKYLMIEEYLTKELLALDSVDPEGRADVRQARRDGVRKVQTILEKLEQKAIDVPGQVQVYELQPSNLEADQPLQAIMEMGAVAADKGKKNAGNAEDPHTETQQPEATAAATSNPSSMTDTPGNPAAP

- Kd: 1 pM
B1: AC-2 murine antibody (antibody, V domains shown)
VH: EVQLQQSGAELVKPGASVKLSCTASGFNIKDTYMYWVKQRPEQGLEWIGGVDPANGNTRYDPKFQGKATLTADTSSSTAYLQLSSLTSEDTAVYYCGRDGAMDYWGQGTSVTVSS
VL: DIVMSQSPSSLAVSVGEKVTMSCKSSQSLLYSSNQKNYLAWHQQKPGQSPKLLIYWASTRESGVPDRFTGSGSGTDFTLTISSVKAEDLAIYYCQQYYTYPLTFGAGTKLELK
notes: Murine hybridoma antibody; also called anti-BAG3 mouse antibody (AC2); murine anti-BAG AC-2 antibody
